Columns and labels:
HeLa Kyoto [1] = test: melting temperature (median over replicates), in situ; higher = more thermally stable
HeLa Kyoto [2] = test: thermal stability score vs G1/S (z-score of summed log2 fold changes over temperatures); higher = more thermally stable than in G1/S
HeLa Kyoto [3] = test: solubility in G1/S (NP-40 vs SDS abundance) (log2 ratio); higher = more soluble; settings: cell cycle stage: G1/S
HeLa Kyoto [4] = test: solubility change mitosis vs G1/S (difference of NP-40 vs SDS log2 ratios) (log2 ratio difference); higher = more soluble in mitosis
[5] = cell cycle stage: early G1 (4.5 h after nocodazole release)
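Throughout, for melting temperature (median over replicates), in situ: HeLa Kyoto cells synchronized by double thymidine or nocodazole block, proteins quantified by TMT10plex mass spectrometry, three independent biological replicates.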
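Throughout, for solubility change mitosis vs G1/S (difference of NP-40 vs SDS log2 ratios): synchronized HeLa Kyoto cells (double thymidine block for G1/S, nocodazole release for mitosis), protein amounts in NP-40 versus SDS lysates quantified by mass spectrometry, three biological replicates.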
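Throughout, for solubility in G1/S (NP-40 vs SDS abundance): HeLa Kyoto cells arrested at G1/S by double thymidine block, proteins quantified by TMT10plex mass spectrometry in mild NP-40 versus SDS extracts, three biological replicates.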
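Throughout, for thermal stability score vs G1/S (z-score of summed log2 fold changes over temperatures): synchronized HeLa Kyoto cells, proteins quantified by TMT10plex mass spectrometry, three biological replicates, mitosis taken 0.5 h after nocodazole release, G1/S directly after double thymidine block.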

MARKLSVILILTFALSVTNPLHELKAAAFPQTTEKISPNWESGINVDLAISTRQYHLQQLFYRYGENNSLSVEGFRKLLQNIGIDKIKRIHIHHDHDHHSDHEHHSDHERHSDHEHHSEHEHHSDHDHHSHHNHAASGKNKRKALCPDHDSDSSGKDPRNSQGKGAHRPEHASGRRNVKDSVSASEVTSTVYNTVSEGTHFLETIETPRPGKLFPKDVSSSTPPSVTSKSRVSRLAGRKTNESVSEPRKGFMYSRNTNENPQECFNASKLLTSHGMGIQVPLNATEFNYLCPAIINQIDARSCLIHTSEKKAEIPPKTYSLQIAWVGGFIAISIISFLSLLGVILVPLMNRVFFKFLLSFLVALAVGTLSGDAFLHLLPHSHASHHHSHSHEEPAMEMKRGPLFSHLSSQNIEESAYFDSTWKGLTALGGLYFMFLVEHVLTLIKQFKDKKKKNQKKPENDDDVEIKKQLSKYESQLSTNEEKVDTDDRTEGYLRADSQEPSHFDSQQPAVLEEEEVMIAHAHPQEVYNEYVPRGCKNKCHSHFHDTLGQSDDLIHHHHDYHHILHHHHHQNHHPHSHSQRYSREELKDAGVATLAWMVIMGDGLHNFSDGLAIGAAFTEGLSSGLSTSVAVFCHELPHELGDFAVLLKAGMTVKQAVLYNALSAMLAYLGMATGIFIGHYAENVSMWIFALTAGLFMYVALVDMVPEMLHNDASDHGCSRWGYFFLQNAGMLLGFGIMLLISIFEHKIVFRINF [SLC39A6]
melting temperature (HeLa Kyoto [1]; cell cycle stage: mitosis): 57.4 °C | thermal stability score (HeLa Kyoto [2]; [5]): 0.915 | thermal stability score (HeLa Kyoto [2]; cell cycle stage: mitosis): -0.208 | solubility in G1/S (log2) (HeLa Kyoto [3]): -0.161 | solubility change mitosis (log2) (HeLa Kyoto [4]): -0.0474

MARMNRPAPVEVTYKNMRFLITHNPTNATLNKFIEELKKYGVTTIVRVCEATYDTTLVEKEGIHVLDWPFDDGAPPSNQIVDDWLSLVKIKFREEPGCCIAVHCVAGLGRAPVLVALALIEGGMKYEDAVQFIRQKRRGAFNSKQLLYLEKYRPKMRLRFKDSNGHRNNCCIQ [PTP4A1]
melting temperature (HeLa Kyoto [1]; cell cycle stage: G1/S): 52.9 °C | melting temperature (HeLa Kyoto [1]; cell cycle stage: mitosis): 53.8 °C | thermal stability score (HeLa Kyoto [2]; [5]): 0.98 | thermal stability score (HeLa Kyoto [2]; cell cycle stage: mitosis): -0.349 | solubility in G1/S (log2) (HeLa Kyoto [3]): -0.131 | solubility change mitosis (log2) (HeLa Kyoto [4]): -0.0406

MASAELQGKYQKLAQEYSKLRAQNQVLKKGVVDEQANSAALKEQLKMKDQSLRKLQQEMDSLTFRNLQLAKRVELLQDELALSEPRGKKNKKSGESSSQLSQEQKSVFDEDLQKKIEENERLHIQFFEADEQHKHVEAELRSRLATLETEAAQHQAVVDGLTRKYMETIEKLQNDKAKLEVKSQTLEKEAKECRLRTEECQLQLKTLHEDLSGRLEESLSIINEKVPFNDTKYSQYNALNVPLHNRRHQLKMRDIAGQALAFVQDLVTALLNFHTYTEQRIQIFPVDSAIDTISPLNQKFSQYLHENASYVRPLEEGMLHLFESITEDTVTVLETTVKLKTFSEHLTSYICFLRKILPYQLKSLEEECESSLCTSALRARNLELSQDMKKMTAVFEKLQTYIALLALPSTEPDGLLRTNYSSVLTNVGAALHGFHDVMKDISKHYSQKAAIEHELPTATQKLITTNDCILSSVVALTNGAGKIASFFSNNLDYFIASLSYGPKAASGFISPLSAECMLQYKKKAAAYMKSLRKPLLESVPYEEALANRRILLSSTESREGLAQQVQQSLEKISKLEQEKEHWMLEAQLAKIKLEKENQRIADKLKNTGSAQLVGLAQENAAVSNTAGQDEATAKAVLEPIQSTSLIGTLTRTSDSEVPDVESREDLIKNHYMARIVELTSQLQLADSKSVHFYAECRALSKRLALAEKSKEALTEEMKLASQNISRLQDELTTTKRSYEDQLSMMSDHLCSMNETLSKQREEIDTLKMSSKGNSKKNKSR [PPP1R21]
melting temperature (HeLa Kyoto [1]; cell cycle stage: G1/S): 51.3 °C | melting temperature (HeLa Kyoto [1]; cell cycle stage: mitosis): 51 °C | thermal stability score (HeLa Kyoto [2]; [5]): 1.34 | thermal stability score (HeLa Kyoto [2]; cell cycle stage: mitosis): 1.02 | solubility in G1/S (log2) (HeLa Kyoto [3]): 0.371 | solubility change mitosis (log2) (HeLa Kyoto [4]): -0.00813

MASCAEPSEPSAPLPAGVPPLEDFEVLDGVEDAEGEEEEEEEEEEEDDLSELPPLEDMGQPPAEEAEQPGALAREFLAAMEPEPAPAPAPEEWLDILGNGLLRKKTLVPGPPGSSRPVKGQVVTVHLQTSLENGTRVQEEPELVFTLGDCDVIQALDLSVPLMDVGETAMVTADSKYCYGPQGRSPYIPPHAALCLEVTLKTAVDGPDLEMLTGQERVALANRKRECGNAHYQRADFVLAANSYDLAIKAITSSAKVDMTFEEEAQLLQLKVKCLNNLAASQLKLDHYRAALRSCSLVLEHQPDNIKALFRKGKVLAQQGEYSEAIPILRAALKLEPSNKTIHAELSKLVKKHAAQRSTETALYRKMLGNPSRLPAKCPGKGAWSIPWKWLFGATAVALGGVALSVVIAARN [FKBP8]
melting temperature (HeLa Kyoto [1]; cell cycle stage: G1/S): 48.7 °C | melting temperature (HeLa Kyoto [1]; cell cycle stage: mitosis): 49.5 °C | thermal stability score (HeLa Kyoto [2]; [5]): 1.22 | thermal stability score (HeLa Kyoto [2]; cell cycle stage: mitosis): 3 | solubility in G1/S (log2) (HeLa Kyoto [3]): 0.229 | solubility change mitosis (log2) (HeLa Kyoto [4]): -0.0477

Source: the supplement of paper PMC5998384
